± gives the standard error. This sample holds only a part of the variants without activity.
B1: glmS ribozyme (parent)
chain: AUAAAAGCGCCAGAACUACAGAAAUGUAGUUGACGAGGAGGAGGUUUAUCGAAUUUUCGGCGGAUGCCUCCAAA

Variants of: B1
Assay: self-cleavage kobs at 10000 uM GlcN6P; higher = faster cleavage; RNA array
Settings: with glucosamine-6-phosphate
How it was run: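 Glucosamine-6-phosphate in HEPES/KCl/Mg(OAc)2 buffer, at 40 μM to 10 mM, was flowed over barcoded ribozyme variants transcribed in situ by E. coli RNA polymerase on sequenced MiSeq chips. Tracking was through a hybridised Cy3 probe at 37 °C. kobs, kcat and KM came from exponential decay fits and weighted Michaelis–Menten fits of normalised per-tile medians.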

Variant | self-cleavage kobs at 10000 uM GlcN6P [s⁻¹]
AUAAAAGCGCCAGAAUUACAGAAAUGUAGUUGACGAGGAGGAGGCUUAUCGAAUGUUCGGCGGAUGCCUCCAAA [C16U U45C U55G] | 0.00144 ± 0.0003
AUAAAAGCGCCAGAACUACAUAAAUGUACUUGACGAGGAGGAGGUUUAUCGAAUUUUCGGCGGAUGCCUCCAAA [G21U G29C] | 0.00256 ± 0.0005
AUAAAAGCGCCAGAACUACAGAAAUGUACUUGACGAGGAGGAGGUUUAAAGAAUUUUCGGCGGAUGCCUCCAAA [G29C U49A C50A] | < 1e-05
AUAAAAGCGCCAGAAUUACAGAAAUGUAGUUGACGAGGAGGAGAUUUAUCGAAGUUUCGGCGGAUGCCUCCAAA [C16U G44A U54G] | 0.000358 ± 7.9e-05
AUAAAAGCGCCAGAACUACAGAAAUGUAAUUUACGAGGAGGAGGUUUAUCGAAUUUUCGGCGGAUGCCUACAAA [G29A G32U C70A] | 4.82e-05 ± 1.8e-05
AUAAAAGCGCCAGAACUACAUAAAUGUAGUUGUCGAGGAGGAGGUUUAUCGAAUUUUCGGCGGAUGCCUUCAAA [G21U A33U C70U] | 0.000159 ± 2.9e-05
AUAAAAGCGCCAGAAUUACAGAAAUGUACUUGACUAGGGGGAGGUUUAUCGAAUUUUCGGCGGAUGCCUCCAAA [C16U G29C G35U A39G] | < 1e-05
AUAAAAGCGCCAGAACUACAGAAAUUUAGUUGACGAGGAGGAGGUUUAUCGAAUUUUCGGCGGAUGCCACCAAA [G26U U69A] | 6.81e-05 ± 2.1e-05
AUAAAAGCGCCAGAACUCCAGAAAUGUAGUUGACGAGAAGGAGGUUUAUUGAAUUUUUUGCGGAUGCCUCCAAA [A18C G38A C50U C58U G59U] | < 1e-05
AUAAAAGCGCCAGAAUUACAGAAAUGUAUUUCACGAGGAGGAGGUUUAUCGAAUUUUCGGCGGAUGCCUCCAAA [C16U G29U G32C] | 8.38e-05 ± 1.7e-05
AUAAAAGCGCCAGAACUACAGAAAUGUAAUUGUCGAGGAGGAGGUUUAUCGAAUUUUCGGCGGAUGCCUCCAAA [G29A A33U] | 3.01e-05 ± 5.5e-06
AUAAAAGCGCCAGAACUACAGAAAUGUACUUGACGAGGAGGAGGUUUAUCGAAUUUUCGGGGGAUGGCUCCAAA [G29C C61G C67G] | < 1e-05
AUAAAAGCGCCAGAACUACAGAAAUGUAUUUGACGAAGAGGAGGUUUAUCGAAUUUUCGGCGGAUGCCUCUAAA [G29U G37A C71U] | 0.000169 ± 4e-05
AUAAAAGCGCCAGAAGUACAGAAAUGUAGUUGACGAGGAGGAGGUUAAUCGAAUUUUCGGGGGAUGCCUCCAAA [C16G U47A C61G] | < 1e-05
AUAAAAGCGCCAGAACUACAGAAAUGUAUUUGACGAGGAAGAGGUUUAUCGCAUUUUCGGCGGAUGACUCCAAA [G29U G40A A52C C67A] | < 1e-05
AUAAAAGCGCCAGAACUACAGAAAUGUAUUUGACGAGAAGGGGGUUGAUCGAAUUUUCGGCGGAUGCCUCUAAA [G29U G38A A42G U47G C71U] | < 1e-05
AUAAAAGCGCCAGAACUACAGAAAUGUAAUUGACGAGGAGGAGGUUUAUCGAAUUUUUGGCGGAUGCCUUCAAA [G29A C58U C70U] | 5.99e-05 ± 1.7e-05
AUAAAAGCGCCAGAACUACAGAAAUGUAUUUGACGAGGAGGAGGUUUAUCGAAUAUUCGGCGGAUGCCACCAAA [G29U U55A U69A] | 4.12e-05 ± 1.6e-05
AUAAAAGCGCCAGAACUACAGAAAUGUAAUUGACGAGGAGGAGGUUUAUCGAAUUUUCGGCGGGUGGCUCCAAA [G29A A64G C67G] | 5.14e-05 ± 2e-05

Variant | self-cleavage kobs at 10000 uM GlcN6P [s⁻¹]
AUAAAAGCGCCAGAACUACAGAAAUGUAAUUGACGAGGAGGAGGUUUAUCGAAUUUUGGGCGGAUGCCUCCAAA [G29A C58G] | 6.15e-05 ± 1.1e-05
AUAAAAGCGCCAGAACUACAGAAAUGUAAUUGACGAGGAGGAGGUUUAUCGAAUUUUUGGCGGAUGCCUCCAAA [G29A C58U] | 4.95e-05 ± 8.6e-06
AUAAAAGCGCCAGAACUACAGAAAUGUAAUUGAGGAGGAGGAGGUUUAUCGAAUUUUCGGCGGAUGUCUCCAAA [G29A C34G C67U] | < 1e-05
AUAAAAGCGCCAGAACUACAGAAAUGUACUUGAUGAGAAGGAGGUUUAUCGAAUUUUCGGCGGAUGCCUCUAAA [G29C C34U G38A C71U] | < 1e-05
AUAAAAGCGCCAGAACUACAGAAAUGUAUUUGACGAGGAGGAGGUAUAUCGAACUUUCGGCGGAUGCCUCCAAA [G29U U46A U54C] | 7.78e-05 ± 2e-05
AUAAAAGCGCCAGAACUACAGAAAUGUACUUGACGAGGAGGAGGUAUAUCGAAUUUUCGGCGGAUGCCUCCAAA [G29C U46A] | 7.43e-05 ± 1.7e-05
AUAAAAGCGCCAGAAGUACAGAAAUGUAGUUGACGAGGAGGAGGUUAAUCGAAUUAUCGGCGGAGGCCUCCAAA [C16G U47A U56A U65G] | 0.000338 ± 9.1e-05
AUAAAAGCGCCAGAACUACAGAAAUGUACUUCACGAGGGGGAGGUUUAUCGAAUUUUCGGCGGAUGCCUCCAAA [G29C G32C A39G] | 7.25e-05 ± 1.8e-05
AUAAAAGCGCCAGAACUACAGAAAUGUACUUGACGAGGAGGAGGUGUAUCGAAUUUUCGGCGGUUGCCUCCAAA [G29C U46G A64U] | < 1e-05
AUAAAAGCGCCAGAACUACAGAAAUGUAGAUGACGAGGAGGAGGUUUGUCGAAUUUUCGGCGGAUGCAUCCAAA [U30A A48G C68A] | < 1e-05
AUAAAAGCGCCAGAACUACAGAAAUGUAUUUGACGAAGAGGAGGUUUAUCGAAUUUUCGGCGGAUGUCUCCAAA [G29U G37A C67U] | 5.27e-05 ± 1.5e-05
AUAAAAGCGCCAGAACUACAGAAAUUUAGUUGACGAGGAGGAGGUUUAGCGAAUUAUCGGCGGAUGCCUCCAAA [G26U U49G U56A] | 0.00027 ± 6.8e-05
AUAAAAGCGCCAGAACUACAGAAAUGUAAUUGACGAGGAGGAGGUUUAUCGAAUUUUCGGCGGAUGUCUUCAAA [G29A C67U C70U] | 6.18e-05 ± 1.1e-05
AUAAAAGCGCCAGAAUUACAGAAAUGUAGUUGACGAGAAGGAGGUUUAUCGGAUUUUCGGCGGAUGCCUCGAAA [C16U G38A A52G C71G] | < 1e-05
AUAAAAGCGCCAGAAUUACAGAAAUGUAGUUGACGAGGAGGAGGUUUAUGGAAUUUUCGGCGGAUGUCUCCAAA [C16U C50G C67U] | 0.000119 ± 2.9e-05
AUAAAAGCGCCAGAACUACAGAAAUGUACUUGACGAGGAGCUGGUUUAUCGAAUUUUCGGCGGAUGCCUCCAAA [G29C G41C A42U] | < 1e-05
AUAAAAGCGCCAGAACUACAGAAAUGUACUUGAGGAGGACGAGGUUUAUCGAAUUUUCGGCGGAUGCCUACAAA [G29C C34G G40C C70A] | < 1e-05
AUAAAAGCGCCAGAAUUACAGAAAUGUAGUUGACGAGGACGAGGUUUAUCGACUUUUCGGCGGAUGCCUCUAAA [C16U G40C A53C C71U] | 0.000561 ± 0.00013

Reference: the supplement of paper PMC7125110
